Results as given in the nanobody polyreactivity screen of Harvey et al. (2022).

Assay: yeast display, Sf9 membrane polyspecificity reagent, FACS + sequencing; frameworks hold sequencing errors
In short: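 Sorting gates, low and high (top ~1%), were placed on anti-HA fluorescence to track expression and on streptavidin fluorescence to track reagent binding. A clone's polyreactivity label is taken from the gate it came out of. The reagent was 10% biotinylated, detergent-solubilized Sf9 membrane, applied for 1 hour at 4 °C to galactose-induced yeast display cells.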

Sequence	polyreactivity (PSR sort gate)
QVQLVESGGGLVQAGGSLRLSCAASGLIFNLYAMGWYRQAPGKEREFVATITGIGGSTYYADSVKGRFTISRDNAKNTVYLQMNSLKPEDTAVYYCAADAWFLPYNDWGQGTQVTVSS	low polyreactivity
QVQLVESGGVLVQDGGSLRLSCAASGRIFGHYAMGWYRQAPGKERELVAAISWSGGSTYYADSVKARFTISRDNAKNTVYLQMKSLKPEDTAVYDCNTGRVRYQGVRYDYWGQGTQVTVSS	high polyreactivity
QVQLVESGGGLVQAGGSLRLSCAASGSIFWYYAMGWYRQAPGKERELVAAISASGSSTYYADSVKGRFTISRDNAKNTVYLQMNSLKPEDTAVYDCAATYSLYNDWLYHYFPEEYDYWGQGTQVTVSS	low polyreactivity
QVQLVESGGGLVQAGGSLLLICAASGFIFVPYAMGWYRQAPGKEREFVATITWRGDSTYYADSVKGRFTISRDNAKNTVYLQMNSLKPEDTAVYYCAVYPIRLWAYDYWGQGTQVTVSS	low polyreactivity
QVQLVESGGGLVQAGGSLRLSCAASGYIFDYYDMGWYRQAPGKERELVAAINGSGGDTYYADSVKGRFTISRDNANNTVYLEMNSLKPEDTAVYYCAADLVYYSGWGYAFNYWGQGTQVNVSS	high polyreactivity
QVQLVESGGGLVQAGGSLRLTCAASGSTFPRYAMGWYRQAPGKEREFVAVIWSGGSTYYADSVKGRFTISRDNAKNTVYLQMNSLKPEDSAVYYCAAEYHTLSKYSGYATHDYWGQGTQVTVSS	low polyreactivity
QVQLVESGGGLVQAGGSLRLSCAASGRTFGIYAMGWYRQAPGKERELVASISWSGGRTYYADSVKGRFTLSRDNAKNTVYLQMNSLKPEDTAVYYCAAYGVYYPRSWQYFDWYGYWGQGTQVTVSS	high polyreactivity
QVQLVESGGGLVQAGGSLRLSCAASGSIFVWNAMGWYRPAPGKERELVAAIRSDDDSTYYADSVKGRFTISRDNAKNTVYLQMNSLKPEDTAVITALVDSPTFSHVKPWDGGDYWGQGTQVTVSS	low polyreactivity
QVQLVESGGGLVQAGGSLRLSCAASGLTFEKYAMGWYRQAPGKERELVAAISQDGGSTYYADSVKGRFTISRDNAKNTVYLQMNSLKPEDTAVYYCAAEDPDSWLPWHLYDYWGQGTQVTVSS	low polyreactivity
QVQLVESRGGLVQAGGSLPLSCAASGSIFDRYAMGWYRQAPGKERELVAAISRSGGSTYYADSVKGRFTISRDNAKNTVYLQMNSLKPEDTAVYYCAARARSLYDYWGQGTQVTVSS	high polyreactivity
QVQLVESGGGLVQAGGSLRLSCAASGSIFSGNAMGWYRQAPGKVRELVAAISRSGGSTYYADSVKGRFTISRDNAKNTVYLQMNSLKPEDTAVYYCAAYRTHGPPRAIRFDYWGQGTQVTVSS	high polyreactivity
QVQLVESGGGLVQAGGSLRLTCAASGRTFYLYAMGWYRQAPGKERELVAAITTSGGSTYYADSVKGRFTFSRDNAKNTVYLQMNSLKPEDTAVSYCNTDLSSTKFDYWGQGTQVTVSS	low polyreactivity
QVQLVESGGGLLQAGGSLRLSCPASGRIFDPYTMGSYRQAPGKERELVARITRRGGRTYYADSVKGRFTISRDNAKNTVYLQMNSLKPEDTAVYYCNADFSYRYYGAYDDWGQGTQVTVSS	high polyreactivity
QVQLEESGGGLVQAGGSLRLSCAASGLIFGWYAMGWYRQAPGKERELVAAISRRGGSTYYADSVKGRFTISRDNAKNSVFLQMNSLKPEDTAVYYCNADTYGDSYDYWGQGTQVTVSS	high polyreactivity
QVQLVESGGGLVQAGGSLRLSCAASGFIFPDYAMGWYRPAPGKERELVAAINRRGSRTYYADSVKGRFTISRDNAKNTVYLQMNSLKPEDTAVYYCNRDVGKVYAVIYDYWGQGTQVTVSS	high polyreactivity
QVQLVESGGGLVQAGGSLRLSCAASGSTFWLNAMGWYRQAPGKEREFVAAITWSSGSTYYADSVKGRFTISRDNAKNTVYLQMNSLKPEDTAVYYCAADGRYVRIRGDYWGQGTQVTVSS	low polyreactivity

Sequence	polyreactivity (PSR sort gate)
QVQLVESGGGLVQAGGSLRLSCAASGGISYRYAMGWYRQAPGKERELVARISRGTGTHYADSVKGRFTISRDNAKNTVYLQMNSLTPEDTAVYYCAAESYRGYYLSLNYWGQGTQVTVSS	high polyreactivity
QVQLVESGGGLVQAGGSLRLSCAASGRIFVYNVMGRYRQAPGKERDLVAAISWGTGSTYADSVKGRFTISRDNAKNTVYLQMNSLKPEDTAVYYCAADSFIPPYDHWGLGTQVTVSS	low polyreactivity
QVHLVESGGGLVQAGGSLRLSCAASGRIFYANARGWYRQAPGKERELVAAISQSGGSTFYADSVKGRFTISRDYAKNTVYLQMNSLKPEDTAVYYCATDYYGPVYDLDYDYWGQGTQVTVSS	low polyreactivity
QVQLVESGGGLVQAGGSLRLSCAASGLTFDWYAMGWYRQAPGKERELVAAISWNGVSTDYADSVKGRFTISRDNAKNTVYLQMNSLKPEDTAVYYCAADPPWYLYVGFDYWGQGTQVSVSS	high polyreactivity
QVQLVESGGGLVQAGGSLRLSCAASGSTFWSYTMGWYRQAPGKERELVAAISRSGGSTYYADSVKGRFTISRDNAKNTVYLQMNSLKPEDTAVYYCAADDRYGSRYYYWGQGTQVTVSS	high polyreactivity
QVQLVESGGGLVQAGGSLRLSCAASGRIFQNNAMGWYRQAPGKERELVAAINIIDGVTYYADSVKGRFTISRDNAKNTVYLQMNSLKPEDTAVYYCNAVRRAHHRKYNYWGQGSQVTVSS	low polyreactivity
QVQLVESGGGLVQAGGSLRLSCAASGSTLRTYAMGWYRQAPGKERELVAAISFSTTSTYYADSVKGRFTISRDNAKNTVYLQMNSLKPEDTAGYDCAAGPRTRYQPDLPGCYYSWGQGTQVTVSS	high polyreactivity
QVQLVESGGGLVQAGGSLRLICAASGFTLGSNAMGWYRQAPGKERELVAAMSKSGGSTYYADSVKGRFTISRDNAKNTVYLQMNSLKPEDTAVYYCAARYLYQGYRYDYWGQGTQVTVSS	high polyreactivity
QVQLVESGGGLVQAGGSLLLSCAASGSTLGRYAMGWYRQAPGKERELVASITWSDDSTYYADSVKGRFTISRDNAKNTVYLQMNSLKPEDTAVYYCAAAGNLYTYRFYYWGQGTQVTVSS	low polyreactivity
QVQLVESGGGLVQAGGSLRLSCAASGRIFFKNAMGWYRQAPGKERELVAGISWSGGRTYYADSVKGRFTISRDNAKNTVYLQMNSLKPEDTAVYYCNAGSSFYRSLRYEYWGQGTQVTVSS	high polyreactivity
QVQLVESGGGLVQAGGSLRLSCAASGSTFVYYAKGWYRQAPGKEREFVAAISISTGSTYYADSVKGRFTISRDNAKNTVYLQMNSLKPEDTAVYYCAVDWFLGGYDDLDYWGQGTQVTVSS	low polyreactivity
QVQLVESGGGLVQAGGSLRLSCAASGSTFKLYAMGWYRPAPGKERELVAAITSNCGRTYYADSVKGRFTISRDIAKNTVYLQMNSLKPEDTAVYYCAARRYAPAGGYDYWGQGTQVTVSS	high polyreactivity
QVQLVESGGGLVQAGGSLRLSCAASGIIFVSYMGWYRQAPGKERELVAAIRWSGGRTYYADSVKGRFTISRDNAKNTVYLQMNSLKPEDTAVYFCAADALRKPKIALYDYWGQGTQVTVSS	high polyreactivity
QVQLVESGGGLVQAGGSLRLSCAASGTFGGYAMGWYRQAPGKEREFVAAIDYGGGSTYYADSVKGRFTMSRDNAKNTVYLQMNSLKPEDTAVYYCAAEHWGYTYDQDFSTWATIYEYWGQGTQVTVSS	high polyreactivity
QVQLVESGGGLVQAGGSLRLSCAASGRTFPRYTMGWYRQAPGKERELVAASATGGSTYYADSVKGRFTISRDNAKNTVYLQMNSLKPEDTAVYYCAAYKLYPYYSTEYDYWGQGTQVTVSS	high polyreactivity
